From PMC3326194 (Nature, 2012)

T1: CFeSP large subunit from Moorella thermoacetica (Moorella thermoacetica, UniProt Q07340 1-446)
T1 sequence (looked up): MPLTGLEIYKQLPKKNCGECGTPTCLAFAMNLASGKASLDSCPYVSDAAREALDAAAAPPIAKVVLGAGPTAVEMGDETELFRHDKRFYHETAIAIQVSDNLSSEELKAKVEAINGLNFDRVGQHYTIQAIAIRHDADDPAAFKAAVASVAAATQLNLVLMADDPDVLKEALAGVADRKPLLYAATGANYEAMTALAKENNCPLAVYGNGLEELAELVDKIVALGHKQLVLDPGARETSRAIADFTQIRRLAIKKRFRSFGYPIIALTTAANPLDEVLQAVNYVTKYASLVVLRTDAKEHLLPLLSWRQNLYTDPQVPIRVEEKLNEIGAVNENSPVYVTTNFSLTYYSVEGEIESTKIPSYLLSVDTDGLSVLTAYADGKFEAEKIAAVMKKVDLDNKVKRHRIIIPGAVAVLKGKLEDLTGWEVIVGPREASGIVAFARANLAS

T2: corrinoid iron-sulfur protein (CFeSP) from Moorella thermoacetica (Moorella thermoacetica, UniProt Q07340 1-446; Q07341 1-323)
T2 sequence (looked up) 1: T1 sequence (looked up)
T2 sequence (looked up) 2: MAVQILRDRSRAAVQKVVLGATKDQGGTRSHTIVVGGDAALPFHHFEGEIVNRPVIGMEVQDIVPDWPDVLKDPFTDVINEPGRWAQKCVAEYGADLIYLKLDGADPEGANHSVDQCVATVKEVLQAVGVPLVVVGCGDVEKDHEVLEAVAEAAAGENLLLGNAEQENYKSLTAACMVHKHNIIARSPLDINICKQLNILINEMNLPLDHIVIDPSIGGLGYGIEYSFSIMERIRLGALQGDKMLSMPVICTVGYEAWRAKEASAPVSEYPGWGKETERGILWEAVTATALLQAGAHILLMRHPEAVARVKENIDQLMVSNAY

B1: CFeSP small subunit from Moorella thermoacetica (natural protein, UniProt Q07341 1-323, looked up)
chain: T2 sequence (looked up) 2
B2: methyltransferase (MeTr) from Moorella thermoacetica (enzyme, UniProt Q46389 1-262, looked up)
chain: MLIIGERINGMFGDIKRAIQERDPAPVQEWARRQEEGGARALDLNVGPAVQDKVSAMEWLVEVTQEVSNLTLCLDSTNIKAIEAGLKKCKNRAMINSTNAEREKVEKLFPLAVEHGAALIGLTMNKTGIPKDSDTRLAFAMELVAAADEFGLPMEDLYIDPLILPANVAQDHAPEVLKTLQQIKMLADPAPKTVLGLSNVSQNCQNRPLINRTFLAMAMACGLDAAIADACDEALIETAATAEILLNQTVYCDSFVKMFKTR

Tests used:
Assay in all cases: crystal structure
[1] = biological target: T1, CFeSP large subunit from Moorella …
[2] = biological target: T2, corrinoid iron-sulfur protein (CFeSP) …
[3] = biological target: B1
crystal structure = biological target: the molecule itself

B1: binds [1].

In the case of B2, the binding result [2] is reported as “binds”, the binding result [3] is reported as “binds” and the “stoichiometry N” value (crystal structure) is reported as 2.
